# Assay results: the RNAGym collection of RNA variant scans (doi:10.1073/pnas.2313332121)
# B1: TPR t1 (parent)
# chain: GACCAAUCUGCCCUCAGAGCUCGAGAACAUCUUCGGAUGCAGAGGAGGCAGGCUUCGGUGGCGCGAUAGCGCCAACGUCCUCAACCUCCAAUGCAUCCCACCACAUGAUGAUGCCUGAAGAGCCUUGGUUUUUUG
# Variants of: B1
# Assay: polymerase ribozyme fitness, log enrichment relative to wild type (log ratio); higher = more active; in vitro selection for triplet polymerase activity
# Outline: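 In triplicate, a single round of in vitro selection was run on each mutant library, PCR-built and transcribed, covering one subunit of a heterodimeric triplet polymerase ribozyme. Frozen incubation at −7 °C followed annealing with a biotinylated primer, partner subunit and triplets, and extended constructs were then gel-excised, streptavidin-captured and taken through RT-PCR. Fitness is the logarithm of genotype enrichment over wild-type enrichment, from inverse-variance-weighted replicate averages of Illumina-sequenced inputs and outputs. […] only genotypes with ≥10 input reads and ≥1 read per output were kept.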
row,Variant,polymerase ribozyme fitness (log ratio)
1,C13A C28G A46G G110C U125C,-0.574
2,C13A C62U,-2.18
3,C13G A18C U38G C88A A121U,-3.5
4,C13G A50U U87C,-3.31
5,C12U G39A C85U,-1.02
6,C13A U38A A46U C70G A121U,-5.9
7,C13G C56G C72G C88A G110C,-6.47
8,C12U G45U C70G U132C,-6.34
9,C12U G39C,-0.515
10,C12U G39U,-0.353
11,C13A U21C C62G,-2.82
12,C13A C72U U78A,-2.1
13,C13G C49A C72U C88A,-2.56
14,C13A U59G C89G U106C,-3.02
15,C12U G39U C115A,-0.243
16,C13A A83G A121U C123U,0.492
17,C12U G45U U132C,-1.19
18,C13A G71U A119G,-1.25
19,C13A A16U U116G,-1.13
20,C12U U78G U96A G120U U131A,-0.178
21,C13A G23C A50G G113C,-6.66

row,Variant,polymerase ribozyme fitness (log ratio)
1,C13A U55C G69C G110U,-4.5
2,C12U G48U C94U,-1.04
3,C13A A27U,-3.33
4,C13A A27C,-3.81
5,C12U G39U C62A U78A,-1.41
6,C13A G52A C53U A75U U81G G120U C124U G127U,-1.17
7,C12U U54G U55A G61A G110A A118C U129A,-6.68
8,C12U G42U C49G C73U U96C,-2.57
9,C13A A66C C123A,-2.16
10,C12U G60U A90G C99U,-2.17
11,C13A C15G U106A,-3.48
12,C12U G48A C56G C72U,-1.47
13,C13A G45C A84C A91C,-4.71
14,C12U U30C G61U,-3.15
15,C12U G61A C73A C88A,-1.6
16,C13A C82A C94U G110A,-3.09
17,C13A C86U C124G,1.07
18,C13G A29G G42A G117U,-6.21
19,C13A A18U G42U G61U C123G,-0.471
20,C12U G52U C53G G61C,-4.41
21,C13A U14A G44A C56U,-2.36

row,Variant,polymerase ribozyme fitness (log ratio)
1,C12U G61A U92A U126A,-4.38
2,C13A A90G,-1.55
3,C13G C40A,-0.524
4,C12U U96G,-0.215
5,C12U U96A,-0.734
6,C13A C40U C72U,-2.43
7,C13A A24G G58C C115A,-3.96
8,C13A C94U,-2.74
9,C13A C94A,-2.07
10,C13G C15U C40U G117U G120A,-2.61
11,C13A C123A,-0.742
12,C13A G60U C72U A91U G120A,-2.35
13,C13G C56G C88A G110C,-5.35
14,C13G A37U G42C C53U G77A A121G U130A,-1.06
15,C13A C53G C70U,-2.31
16,C13G A43U A84G A121C U131G,-1.74
17,C13A G39C,-2
18,C13A G71U,-1.35
19,C12U G45C C104A G117A,-3.2
20,C13G A24G G48A G63C C86G U109A,-6.58
21,C13A A46C C124G,0.675

row,Variant,polymerase ribozyme fitness (log ratio)
1,C13A G57C C85A,-1.99
2,C13A C40U C62A C123G,-0.545
3,C12U U21G C53U A68C C124A,-6.61
4,C13A A91C U96C,-2.79
5,C13A C70G,-3.31
6,C13A C70U,-2.36
7,C12U U21A C40G C89G A121G,-1.38
8,C13A G42A G69U A111C U116A U129G,-4.99
9,C13A G17A C62A G120A,-5.55
10,C13A C88G,-3.12
11,C13A C79A,-3.23
12,C13A G57U,-1.78
13,C12U G51A C79U C101A,-3.78
14,C12U G42A,-1.82
15,C12U G42U,-0.819
16,C13A A43G C70G U116C G117U,-6.51
17,C12U G71C C97U,-0.967
18,C12U G69U G77A,0.767
19,C13A G69U U129A,-1.63
20,C13A U32C C49U G61A G77C U92C,-3.43
21,C13A U32A C53G,-6.04
